Positions count from the first letter of the chain named.

Five molecules from patent US12331110B2, “Monoclonal antibodies against endotrophin and the use thereof” (THE BOARD OF REGENTS OF THE UNIVERSITY OF TEXAS SYSTEM, priority 2018, dated 2025) can be followed below.

Assay [1] relates to ETP transfected MCF7 cells. Description: ETP transfected MCF7 tumor growth in nude mice. In kind it is in vivo. To be noted: 2.5 mg/kg cisplatin once a week. The protocol:
FIGS. 5A-C. Antibody effects on ETP-MCF7 cells in vivo. (FIG. 5A) ETP transfected MCF7 cells (2×10^6 cells) were implanted into nude mice. An estradiol pellet (0.72 mg) was implanted into nude mice. Then (i) 20 mg/kg ETPmAb4, (ii) 10 mg/kg ETPmAb4 with 10 mg/kg control IgG, (iii) 5 mg/kg ETPmAb4 with 15 mg/kg control IgG, (iv) 2 mg/kg ETPmAb4 with 18 mg/kg control IgG, and (v) 20 mg/kg control IgG (twice a week) were injected after 10-days implantation for 5-weeks. Tumor volume was determined by caliper measurement. Data was represented as mean±SD (n=5/group), and *** p<0.0001 by ANOVA followed by Newman-Keuls multiple comparison test. (FIG. 5B) Total RNA was prepared from tumor tissues from ETP transfected MCF7, ETPmAb4 treatment mice. The EMT markers genes Twist, Snail, Cdh2 and Cdh 1 were determined by qRT-PCR, then normalized to GAPDH. E-CAD immunofluorescence staining for tumor tissues from ETP transfected MCF7 and ETPmAb4 treatment tumor. (FIG. 5C) MCF7 and ETP transfected MCF7 cells (2×10^6 cells) were implanted into nude mice. An estradiol pellet (0.72 mg) was implanted into nude mice. Then 20 mg/kg of antibody ETPmAb4 (twice a week), and 2.5 mg/kg of cisplatin (once a week) were injected after 10-days implantation for 6-weeks. Tumor volume was determined by caliper measurement. Data was represented as mean±SD (n=5/group), and *** p<0.0001 by ANOVA followed by Newman-Keuls multiple comparison test.
Animal experiments. NU/NU nude female mice were purchased from Charles River (Crl: NU-Foxnlnu; Strain Code 088 (Homozygous)). Breast cancer cells (2×10^6 cells) were implanted by intraductal injection. All cell lines were mixed on ice with 1×PBS and Matrigel. Then 100 μL of mixture was injected into mice. Tumors were measured twice a week, beginning 10 days after injection, and tumor volume was calculated by length×(width) 2/2 (mm^3).
Analysis of Tumor Progression. Tumor onset was monitored twice weekly by palpation. Tumor sizes were measured using a digital caliper twice weekly and the volumes were calculated as length× width2)/2. Inguinal tumors were weighted to determine tumor burden. Animals were sacrificed when the tumor burden visibly affected the host, or when the tumors reached the IACUC pre-determined limit of 20 mm along one axis.
As a next step, whether the anti-endotrophin antibodies effectively curb the aggressive tumor growth observed in endotrophin overexpressing MCF-7 cells was examined. To boost the growth rate of the tumor cells, these assays were performed in the presence of estradiol pellets. Cells (2×10^6 cells) were injected into nude mice and their tumor growth was monitored over time, based on a twice weekly injection of either a control monoclonal preparation, or ETPmAb4; in all cases, a total of 20 mg/kg of antibody was used. The dose dependence was tested by either injecting 20 mg/kg of control antibody, 20 mg/kg of ETPmAb4, or a mixture of the two with decreasing levels of control antibody mixed with increasing levels of ETPmAb4.
To test this, MCF7 cells were used with or without endotrophin overexpression, and the cells were transplanted into nude mice, in the presence of estradiol pellets (FIG. 5C). […] As expected, MCF7 cells harboring an excess in endotrophin grew very aggressively (FIG. 5C; red line).

A further assay relates to MDA-MB-231 cells. Description: MDA-MB-231 tumor growth in nude mice. In kind it is in vivo. To be noted: 2.5 mg/kg cisplatin. The protocol: FIGS. 6A-D. The antibody effects on MDA-MB-231 cells in vivo. (FIG. 6A) MDA-MB-231 cells (2×10^6 cells) were implanted into nude mice. Then 2.5 mg/kg of cisplatin and 20 mg/kg of ETPmAb4 antibody (twice a week) were injected after 10-days implantation for 5-weeks. Tumor volume was determined by caliper measurement. The insert reflects a simplified analysis of control antibody versus ETPmAb4 with associated statistics. (FIG. 6B) MDA-MB-231 cells (2×10^6 cells) were implanted into nude mice. Treatment was started when the tumor volume was over 30 mm^3. At that point, 2.5 mg/kg of cisplatin and 20 mg/kg of ETPmAb4 antibody (twice weekly) were injected for 5-weeks. Tumor volumes were determined by caliper measurements. The insert reflects a simplified analysis of control antibody versus ETPmAb4 with associated statistics. (FIG. 6C) SKOV3 cells (2×10^6 cells) were implanted into nude mice. Then 2.5 mg/kg of cisplatin and 20 mg/kg of ETPmAb4 antibody (twice weekly) were injected 10-days after implantation for 5-weeks. Tumor volumes were determined by caliper measurements. The insert reflects a simplified analysis of control antibody versus ETPmAb4 with associated statistics. (FIG. 6D) MDA-MB-231 cells (2×10^6 cells) were implanted into nude mice. Then 2.5 mg/kg of cisplatin, 20 mg/kg of ETPmAb4 antibody and 20 mg/kg of humanized ETPmAb4 antibody (twice a week) were injected after 10-days implantation for 5-weeks. Tumor volume was determined by caliper measurement. […]
(§1) Animal experiments. […] Tumors were measured twice a week, beginning 10 days after injection, and tumor volume was calculated by length×(width) 2/2 (mm^3).
(§2) Analysis of Tumor Progression. Tumor onset was monitored twice weekly by palpation. Tumor sizes were measured using a digital caliper twice weekly and the volumes were calculated as length× width2)/2. […] Animals were sacrificed when the tumor burden visibly affected the host, or when the tumors reached the IACUC pre-determined limit of 20 mm along one axis. […]
After humanization, the binding affinity of hETPmAb4 to endotrophin was measured in Octet RED96. […]

The next assay concerns MCF7 cells. The assay is described as follows: MCF7 tumor growth in nude mice. In kind it is in vivo. Conditions: 2.5 mg/kg cisplatin once a week, estradiol pellet. The procedure: FIGS. 5A-C. Antibody effects on ETP-MCF7 cells in vivo. (FIG. 5A) ETP transfected MCF7 cells (2×10^6 cells) were implanted into nude mice. An estradiol pellet (0.72 mg) was implanted into nude mice. Then (i) 20 mg/kg ETPmAb4, (ii) 10 mg/kg ETPmAb4 with 10 mg/kg control IgG, (iii) 5 mg/kg ETPmAb4 with 15 mg/kg control IgG, (iv) 2 mg/kg ETPmAb4 with 18 mg/kg control IgG, and (v) 20 mg/kg control IgG (twice a week) were injected after 10-days implantation for 5-weeks. Tumor volume was determined by caliper measurement. Data was represented as mean±SD (n=5/group), and *** p<0.0001 by ANOVA followed by Newman-Keuls multiple comparison test. (FIG. 5B) Total RNA was prepared from tumor tissues from ETP transfected MCF7, ETPmAb4 treatment mice. The EMT markers genes Twist, Snail, Cdh2 and Cdh 1 were determined by qRT-PCR, then normalized to GAPDH. […] Tumor volume was determined by caliper measurement. […]
as §1, §2

The target of assay [2] is T1, recombinant endotrophin protein (Homo sapiens, UniProt P12111).
T1 construct: the latter consisting of 77 amino acids at the carboxy-terminal of the COL6α3 chain; CD33 signal peptide (N, cleaved yes); His-tag with EK-cleavage site (N, cleaved yes); purchased Sino Biological, Beijing, China; host or cells: HEK293
The assay is described as follows: Affinity measurement with BLI (Octet RED96). Conditions: Octet (96-Red), 1:1 binding model. The procedure: FIGS. 12A-B. Kinetic sensorgrams for ETP-mAb4 (FIG. 12A) and each of the humanized antibodies (FIG. 12B). […]
For antibody affinity measurement, antibody (30 μg/mL) was loaded onto the protein A biosensors for 4 min. Following a short baseline in kinetics buffer, the loaded biosensors were exposed to a series of recombinant endotrophin protein at 0.1-200 nM and background subtraction was used to correct for sensor drifting. All experiments were performed with shaking at 1,000 rpm. Background wavelength shifts were measured from reference biosensors that were loaded only with antibody. Kinetic sensorgrams for each antibody are shown in FIGS. 12A&B. ForteBio's data analysis software was used to fit the data to a 1:1 binding model to extract an association rate and dissociation rate. The Kd was calculated using the ratio of koff/kon and the estimated values of […] for endotrophin ETP-mAb4 and 4 humanized ETP-hMab4 antibodies are listed in Table 4.

T1 sequence (P12111 3101-3177): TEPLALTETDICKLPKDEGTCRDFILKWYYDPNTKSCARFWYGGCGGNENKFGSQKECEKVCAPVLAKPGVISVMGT

Consider `N.N.[Cl][Pt][Cl]` [cisplatinum, cisplatin, reference compound], for which the “lesion growth, cisplatinum alone or with control antibody” value in assay [1] was “moderately reduced”. In the assay with MDA-MB-231 cells, the “lesion growth, cisplatinum alone or with control antibodies” value is given as “reduced”. Also, the “lesion growth, cisplatinum” value in the assay on MCF7 cells is “significantly curbed lesion growth”.

B1: ETP-mAb4.4: humanized IgG1 version of ETPmAb4; VH SEQ ID NO: 161, VL SEQ ID NO: 158 (antibody, V domains shown)
VH: EVQLLESGGGLVQPGGSLRLSCAASGFSFSSGYYICWVRQAPGKGLEWIACIYGGNNNPYYANWVNGRFTTSRDNSKNTLYLQMNSLRAEDTAVYYCARKDINIGGAYELWGQGTLVTVSS
VL: DIQMTQSPSSLSASVGDRVTITCQASQSISSSYLSWYQQKPGKAPKLLIYKASTLASGVPSRFSGSGSGTDFTLTISSLQPEDFATYYCQYSDWANSYGNAFGGGTKVEIK
modifications: human IgG1 constant regions
With B1, in assay [2], the kdis was 3.28 E−04 1/s and the kon was 1.30 E+05 1/Ms.

B2: ETP-mAb4.1: humanized IgG1 version of ETPmAb4; VH SEQ ID NO: 157, VL SEQ ID NO: 158 (antibody, V domains shown)
VH: B1 VH with T71I
VL: B1 VL
modifications: human IgG1 constant regions
Consider B2, for which, in assay [2], the kdis is 2.35 E−04 1/s and the kon is 1.16 E+05 1/Ms.

B3: ETP-mAb4.5: humanized IgG1 version of ETPmAb4; VH SEQ ID NO: 162, VL SEQ ID NO: 158 (antibody, V domains shown)
VH: B1 VH with S28T, N57S, T71I
VL: B1 VL
modifications: human IgG1 constant regions
With B3, in assay [2], the kdis is listed as 2.23 E−04 1/s and the kon was 1.16 E+05 1/Ms.

B4: ETP-mAb4.2: humanized IgG1 version of ETPmAb4; VH SEQ ID NO: 159, VL SEQ ID NO: 158 (antibody, V domains shown)
VH: B1 VH with N57S, T71I
VL: B1 VL
modifications: human IgG1 constant regions
For B4, in assay [2], the kdis is on record as 3.05 E−04 1/s and the kon is reported as 1.23 E+05 1/Ms.
